Reference: patent US20070224178A1 (Sanofi, published 2007)

T1: Vascular endothelial growth factor (VEGF) (Homo sapiens (Human), UniProt P15692 181-395)
T1 construct: also called VEGF165; VEGF A
T1 sequence: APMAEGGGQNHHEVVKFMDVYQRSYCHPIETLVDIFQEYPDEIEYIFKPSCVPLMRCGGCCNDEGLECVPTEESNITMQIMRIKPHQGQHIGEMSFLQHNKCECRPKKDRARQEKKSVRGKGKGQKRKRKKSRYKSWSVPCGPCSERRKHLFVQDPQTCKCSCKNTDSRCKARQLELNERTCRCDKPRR


Tests used:
[1] = target: Vascular endothelial growth factor (VEGF) (Homo sapiens (Human)) (UniProt P15692); test: surface plasmon resonance (BIAcore), sFlt-1 construct immobilized on the chip, VEGF165 injected at 0.2 to 15 nM; the column head prints KD (nM), but the printed Kd/Ka (1.22e-3 / 2.71e6) gives about 4.5e-10 M
[2] = target: Vascular endothelial growth factor (VEGF) (Homo sapiens (Human)) (UniProt P15692); test: surface plasmon resonance (BIAcore), sFlt-1 construct immobilized on the chip, VEGF165 injected at 0.2 to 15 nM; column Ka
[3] = target: Vascular endothelial growth factor (VEGF) (Homo sapiens (Human)) (UniProt P15692); test: surface plasmon resonance (BIAcore), sFlt-1 construct immobilized on the chip, VEGF165 injected at 0.2 to 15 nM; column Kd
[4] = target: T1, Vascular endothelial growth factor …; test: solution binding assay: serially diluted conditioned medium with soluble receptor mixed with 10 pM VEGF, unbound VEGF measured by ELISA
Procedure: FIG. 11. VEGF “in vitro” binding assay. Conditioned media from 293 cells containing known concentrations of both D2-9Gly-Fc and Flt-1 D(1-3) control soluble receptors (ranging in concentrations from 0.29-150 pM) were serially diluted and mixed with 10 pM VEGF. The amount of unbound VEGF was then measured by ELISA. D2-9Gly-Fc binds VEGF with higher affinity than all other constructs. “n” represents the number of independent experiments (transfection and binding assay).
Briefly, conditioned media containing known concentrations of soluble receptor (ranging in concentrations from 0.29-150 pM) were serially diluted and mixed with 10 pM VEGF. The amount of unbound VEGF was then measured by ELISA. […] D2-CH3 has the lowest affinity to bind VEGF (FIG. 11).

rFlt-1(Fc)(R&D), sequence (P17948 other isoform, or with tags, fused parts or gaps): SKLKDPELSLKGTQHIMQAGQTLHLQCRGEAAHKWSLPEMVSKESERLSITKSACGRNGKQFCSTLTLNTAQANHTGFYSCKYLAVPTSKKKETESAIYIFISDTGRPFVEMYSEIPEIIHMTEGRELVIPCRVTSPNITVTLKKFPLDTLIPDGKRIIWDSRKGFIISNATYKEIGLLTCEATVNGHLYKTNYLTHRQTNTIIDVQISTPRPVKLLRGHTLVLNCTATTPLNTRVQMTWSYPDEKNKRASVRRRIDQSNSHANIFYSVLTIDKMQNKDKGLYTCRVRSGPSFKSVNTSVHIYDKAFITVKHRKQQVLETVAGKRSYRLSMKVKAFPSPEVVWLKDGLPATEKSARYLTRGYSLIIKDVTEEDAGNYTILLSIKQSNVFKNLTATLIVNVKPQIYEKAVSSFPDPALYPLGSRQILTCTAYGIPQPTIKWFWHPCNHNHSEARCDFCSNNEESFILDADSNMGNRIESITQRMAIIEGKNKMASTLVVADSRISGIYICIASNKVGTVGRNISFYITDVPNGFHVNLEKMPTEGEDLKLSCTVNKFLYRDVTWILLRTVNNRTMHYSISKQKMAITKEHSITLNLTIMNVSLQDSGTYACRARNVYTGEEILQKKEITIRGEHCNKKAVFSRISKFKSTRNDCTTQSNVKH

| Molecule | Kd [1] [pM] | kon [2] [M⁻¹ s⁻¹] | koff [3] [s⁻¹] | IC50 (read off the curve) [4] [pM] |
| --- | --- | --- | --- | --- |
| D(1-3) (receptor, human (by the accession given in p-0034), UniProt P17948 27-328, looked up, soluble fragment, Ig-like domains 1-3; made in conditioned medium of 293 cells; also called Flt-1 D(1-3) control soluble receptor) soluble receptor fragment: SKLKDPELSLKGTQHIMQAGQTLHLQCRGEAAHKWSLPEMVSKESERLSITKSACGRNGKQFCSTLTLNTAQANHTGFYSCKYLAVPTSKKKETESAIYIFISDTGRPFVEMYSEIPEIIHMTEGRELVIPCRVTSPNITVTLKKFPLDTLIPDGKRIIWDSRKGFIISNATYKEIGLLTCEATVNGHLYKTNYLTHRQTNTIIDVQISTPRPVKLLRGHTLVLNCTATTPLNTRVQMTWSYPDEKNKRASVRRRIDQSNSHANIFYSVLTIDKMQNKDKGLYTCRVRSGPSFKSVNTSVHI |  |  |  | ~1 |
| D2-9Gly-Ex3/CH3 (other, domain: Flt-1 domain 2; Conditioned medium of transfected 293 cells) PFVEMYSEIPEIIHMTEGRELVIPCRVTSPNITVTLKKFPLDTLIPDGKRIIWDSRKGFIISNATYKEIGLLTCEATVNGHLYKTNYLTHRQTGGGGGGGGGPSCVPLMRCGGCCNGQPREPQVYTLPPSREEMTKNQVSLTCLVKGFYPSDIAVEWESNGQPENNYKTTPPVLDSDGSFFLYSKLTVDKSRWQQGNVFSCSVMHEALHNHYTQKSLSLSPGK |  |  |  | ~0.9 |

Results, then the molecule that gave them:

| Kd [1] [pM] | kon [2] [M⁻¹ s⁻¹] | koff [3] [s⁻¹] | IC50 (read off the curve) [4] [pM] | Molecule |
| --- | --- | --- | --- | --- |
| 448 | 2.71e+06 | 0.00122 |  | rFlt-1(Fc)(R&D) (from UniProt P17948-2) (Fc fusion) |
|  |  |  | ~0.5 | D2-9Gly-CH3 (other, domain: Flt-1 domain 2; Conditioned medium of transfected 293 cells) PFVEMYSEIPEIIHMTEGRELVIPCRVTSPNITVTLKKFPLDTLIPDGKRIIWDSRKGFIISNATYKEIGLLTCEATVNGHLYKTNYLTHRQTGGGGGGGGGGQPREPQVYTLPPSREEMTKNQVSLTCLVKGFYPSDIAVEWESNGQPENNYKTTPPVLDSDGSFFLYSKLTVDKSRWQQGNVFSCSVMHEALHNHYTQKSLSLSPGK |
